From patent US12685781B2, “Anti-HER3 antibody-drug conjugate” (DAIICHI SANKYO COMPANY, LIMITED, priority 2014, dated 2026)

Experiments:
HER3 [1] = target: T1, HER3 (Homo sapiens, UniProt P21860); test: Reduction in expression of HER3 on cell surface (internalization), flow cytometry in HCC1569; type: cell-based; parameters: host or cells: HCC1569 (human breast cancer cell line); settings: HCC1569, 10 ug/mL, 37 C, 1 hr
Method: HER3 internalization by U1-59 and each antibody-drug conjugate was evaluated by flow cytometry. 70,000 living cells of HCC1569 (from ATCC) were suspended in 0.5 mL of RPMI1640 (Invitrogen Corp., #31870-025) (containing 10% FBS (Invitrogen Corp., #10270-106 or PAN Biotech GmbH, #1505-P131304) and 2 mM glutamine (Invitrogen Corp., #25030-024)) and inoculated to each well of a 24-well plate. The cells were cultured for 4 days, and the medium was replaced with 0.5 mL of a fresh medium before the start of the internalization test. 5 ug of the antibody or each antibody-drug conjugate was added to 0.5 mL in each well of the 24-well plate such that the final concentration was 10 ug/mL. The cells were cultured for 1 hour at 37 C in the presence of the antibody or the antibody-drug conjugate. […]
For flow cytometry analysis, the cells were washed once with PBS and dissociated from the plate using 5 mM EDTA (100 uL/well) dissolved in ACCUTASE® SOLUTION (Millipore Corp., SCR005) or PBS. […] The fluorescence signals of living cells were measured using Accuri C6 Flow cytometer. […]
In order to quantify HER3-specific signals, values of cells stained with only the secondary antibody or 7-AAD were subtracted from FL-2 values of cells stained with the primary antibody and the secondary antibody, and further 7-AAD. […]

HER3 [2] = target: T1, HER3; test: HER3 binding affinity by flow cytometry on HCC1569 cells; parameters: host or cells: HCC1569 (human breast cancer cell line); settings: read-out: Kd (nM), equilibrium binding affinity
Method: A human breast cancer cell line HCC1569 (CRL-2330) from ATCC was cultured in an RPMI1640 medium (purchased from Invitrogen Corp., containing 10% […] (manufactured by Invitrogen Corp.) and 2 mM L-glutamine (manufactured by Invitrogen Corp.)). The cells were dissociated from the culture plate using ACCUTASE® SOLUTION (Millipore Corp., SCR005) or EDTA (5 mM, phosphate buffered saline (PBS, 137 mM sodium chloride, 2.7 mM potassium chloride, 1.47 mM potassium dihydrogen phosphate, and 10.5 mM disodium hydrogen phosphate)), and the number of living cells was measured by trypan blue treatment. The same numbers of cells suspended in a fluorescence-activated cell sorting (FACS) buffer (PBS containing 3% FBS and 0.004% sodium azide) were inoculated to 96-well U-bottom plates, and the cells were precipitated by centrifugation and suspended in 100 uL of an ice-cooled antibody or antibody-drug conjugate dilution or FACS buffer. […]
U1-59, the antibody-drug conjugate (3), the antibody-drug conjugate (10), or the antibody-drug conjugate (13) was evaluated as the antibody or the antibody-drug conjugates. […]
Fluorescence signals from living cells were evaluated using Accuri C6 Flow cytometer (BD Biosciences/Accuri® Cytometers Inc., serial number 1424) and CFlow software (CFlow sampler Version 1.0.264.13). […]

reduction in HER3 expression on cell surface (HER3 [1]): about 50%
Kd (HER3 [2]): 1.6 nM
Substance: U1-59: anti-HER3 human antibody; heavy and light chain variable regions SEQ ID NOs: 70 and 72; produced per WO 2007/077028
